Here are results for 14 molecules from patent US20030224390A1, “Method of identifying conformation-sensitive binding peptides and uses thereof” (Karo Bio AB, priority 2000, published 2003).

Changes are numbered by the printed parent chain.

One assay deals with ERβ (Homo sapiens, UniProt Q92731). The assay can be described thus: Binding of the peptide probes to ERβ in the presence of modulators (Table 15b).
In assay [1] the target is T1, estrogen receptor (ER) α as a carboxy-terminal fusion to the Gal4 activation domain (yeast, UniProt P03372 1-595, limits assumed).
T1 sequence (looked up): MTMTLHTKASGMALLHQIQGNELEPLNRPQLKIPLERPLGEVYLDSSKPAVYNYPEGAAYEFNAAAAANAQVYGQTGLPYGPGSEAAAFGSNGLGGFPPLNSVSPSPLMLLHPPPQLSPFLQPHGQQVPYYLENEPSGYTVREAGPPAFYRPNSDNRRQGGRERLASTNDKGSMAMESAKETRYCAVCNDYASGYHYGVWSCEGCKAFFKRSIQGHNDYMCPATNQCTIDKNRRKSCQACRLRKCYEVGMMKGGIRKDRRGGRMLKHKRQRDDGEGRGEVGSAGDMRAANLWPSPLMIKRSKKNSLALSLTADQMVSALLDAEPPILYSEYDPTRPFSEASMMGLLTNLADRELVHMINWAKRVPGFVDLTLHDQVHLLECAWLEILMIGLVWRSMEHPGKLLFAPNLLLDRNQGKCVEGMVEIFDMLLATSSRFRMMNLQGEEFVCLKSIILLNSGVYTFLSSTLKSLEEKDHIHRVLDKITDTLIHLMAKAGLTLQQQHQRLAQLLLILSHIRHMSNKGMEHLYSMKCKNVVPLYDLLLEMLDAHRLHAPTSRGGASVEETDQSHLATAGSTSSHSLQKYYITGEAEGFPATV
The assay can be described thus: cell-based or functional assay.

Assay [2] deals with T2, pVP16-AR (VP16 activation domain fused to androgen receptor), P10275.
T2 chain: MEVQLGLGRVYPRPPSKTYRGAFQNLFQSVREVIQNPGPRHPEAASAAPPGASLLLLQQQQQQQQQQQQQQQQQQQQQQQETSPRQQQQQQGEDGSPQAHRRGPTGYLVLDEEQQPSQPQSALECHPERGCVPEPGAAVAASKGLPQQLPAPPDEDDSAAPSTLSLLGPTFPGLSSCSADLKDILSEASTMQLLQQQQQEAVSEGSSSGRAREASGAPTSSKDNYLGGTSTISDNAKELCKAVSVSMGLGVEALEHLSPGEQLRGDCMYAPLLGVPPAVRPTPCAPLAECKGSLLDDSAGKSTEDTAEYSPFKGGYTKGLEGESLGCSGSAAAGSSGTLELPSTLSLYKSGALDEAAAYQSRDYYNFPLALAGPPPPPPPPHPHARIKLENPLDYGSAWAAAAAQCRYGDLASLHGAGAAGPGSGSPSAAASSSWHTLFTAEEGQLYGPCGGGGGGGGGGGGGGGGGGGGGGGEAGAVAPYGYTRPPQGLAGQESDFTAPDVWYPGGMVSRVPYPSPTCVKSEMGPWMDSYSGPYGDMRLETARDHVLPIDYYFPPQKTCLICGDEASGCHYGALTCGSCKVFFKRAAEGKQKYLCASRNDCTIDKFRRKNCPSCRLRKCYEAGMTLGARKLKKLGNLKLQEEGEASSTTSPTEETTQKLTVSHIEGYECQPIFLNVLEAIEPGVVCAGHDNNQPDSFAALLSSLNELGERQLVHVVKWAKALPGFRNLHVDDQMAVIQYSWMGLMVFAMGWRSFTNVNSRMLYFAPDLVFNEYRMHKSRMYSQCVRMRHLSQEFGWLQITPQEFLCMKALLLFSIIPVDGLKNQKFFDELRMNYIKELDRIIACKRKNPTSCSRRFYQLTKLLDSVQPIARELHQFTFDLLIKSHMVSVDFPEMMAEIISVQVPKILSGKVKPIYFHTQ
The assay can be described thus: cell-based or functional assay.

The target of assay [3] is T3, Gal4 transcriptional activation domain (AD) fused in frame with AR (pGAD-C2) (yeast), P10275.
T3 chain: T2 chain
The assay can be described thus: cell-based or functional assay.

Sequence of ERβ (Q92731 whole entry, species assumed, the tested form may be a part): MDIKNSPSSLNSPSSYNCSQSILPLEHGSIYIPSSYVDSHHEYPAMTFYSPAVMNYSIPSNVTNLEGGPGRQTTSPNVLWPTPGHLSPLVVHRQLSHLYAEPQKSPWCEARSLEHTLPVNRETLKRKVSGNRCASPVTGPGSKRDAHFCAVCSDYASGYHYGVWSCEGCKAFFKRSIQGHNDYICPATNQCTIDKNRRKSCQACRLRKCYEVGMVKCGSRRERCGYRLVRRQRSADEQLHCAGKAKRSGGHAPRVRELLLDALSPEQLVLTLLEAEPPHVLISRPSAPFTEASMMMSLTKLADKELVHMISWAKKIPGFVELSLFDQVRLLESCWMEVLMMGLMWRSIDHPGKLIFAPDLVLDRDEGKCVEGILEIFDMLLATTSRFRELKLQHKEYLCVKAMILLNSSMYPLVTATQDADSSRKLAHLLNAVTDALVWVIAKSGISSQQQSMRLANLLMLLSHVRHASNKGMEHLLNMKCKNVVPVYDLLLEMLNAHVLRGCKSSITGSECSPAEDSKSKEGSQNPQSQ

As to `CCN(CC)CCOc1ccc(C(=C(Cl)c2ccccc2)c2ccccc2)cc1` [Clomiphene], the “Equiv. (equivalency), peptide probe α/βIII on ERβ” value on ERβ (probe α/βIII) worked out at 34%. At ERβ (probe α/βIV), the “Equiv. (equivalency), peptide probe α/βIV on ERβ” value came out at 0%. Further, the “Equiv. (equivalency), peptide probe α/βV on ERβ” value at ERβ (probe α/βV) was 13%. Besides, at ERβ (probe βI), the “Equiv. (equivalency), peptide probe βI on ERβ” value was −62%. Besides, the “Equiv. (equivalency), peptide probe βIII on ERβ” value at ERβ (probe βIII) is reported as −61%.

B1: B3E2 (peptide)
chain: MKLLSSIEQACDICRLKKLKCSKEKPKCAKCLKNNWECRYSPKTKRSPLTRAHLTEVESRLERLEQLFLLIFPREDLDMILKMDSLQDIKALLTGLFVQDNVNKDAVTDRLASVETDMPLTLRQHRISATSSSEESSNKGQRQLTVSEFGGSVLLRELLCCYDALEPTTTR
For the molecule B1, in assay [1], the “fold induction of β-galactosidase by estradiol, yeast two-hybrid” value (from here on “fold induction of β-galactosidase”) stood at 3 fold.

B2: B5H10 (peptide)
chain: MKLLSSIEQACDICRLKKLKCSKEKPKCAKCLKNNWECRYSPKTKRSPLTRAHLTEVESRLERLEQLFLLIFPREDLDMILKMDSLQDIKALLTGLFVQDNVNKDAVTDRLASVETDMPLTLRQHRISATSSSEESSNKGQRQLTVSEFSPPSSLLALLLGGKSLEPLPIRYKNVKRQFTSNSRGSVDLQPS
Take B2: the “fold induction of β-galactosidase” value in assay [1] amounted to 4.5 fold.

B3: B1A1 (peptide)
chain: MKLLSSIEQACDICRLKKLKCSKEKPKCAKCLKNNWECRYSPKTKRSPLTRAHLTEVESRLERLEQLFLLIFPREDLDMILKMDSLQDIKALLTGLFVQDNVNKDAVTDRLASVETDMPLTLRQHRISATSSSEESSNKGQRQLTVSEFCPVGLLVHLLMQ
Turning to B3, the “fold induction of β-galactosidase” value in assay [1] worked out at 11 fold.

B4: B1G8 (peptide)
chain: B3 chain with C150T, P151S, G153S, L154R, H157T, M160L
Take B4: the “fold induction of β-galactosidase” value in assay [1] is 6 fold.

B5: B6A1 (peptide)
chain: MKLLSSIEQACDICRLKKLKCSKEKPKCAKCLKNNWECRYSPKTKRSPLTRAHLTEVESRLERLEQLFLLIFPREDLDMILKMDSLQDIKALLTGLFVQDNVNKDAVTDRLASVETDMPLTLRQHRISATSSSEESSNKGQRQLTVSEFTGSRLLLKLLRFPDSSTCSQA
As for B5, the “fold induction of β-galactosidase” value in assay [1] was determined as 3.5 fold.

B6: B6F3 (peptide)
chain: MKLLSSIEQACDICRLKKLKCSKEKPKCAKCLKNNWECRYSPKTKRSPLTRAHLTEVESRLERLEQLFLLIFPREDLDMILKMDSLQDIKALLTGLFVQDNVNKDAVTDRLASVETDMPLTLRQHRISATSSSEESSNKGQRQLTVSEFFRATHLLRLLRTDSALDLQPS
As for B6, the “fold induction of β-galactosidase” value in assay [1] was determined as 3 fold.

B7: B5A2 (peptide)
chain: MKLLSSIEQACDICRLKKLKCSKEKPKCAKCLKNNWECRYSPKTKRSPLTRAHLTEVESRLERLEQLFLLIFPREDLDMILKMDSLQDIKALLTGLFVQDNVNKDAVTDRLASVETDMPLTLRQHRISATSSSEESSNKGQRQLTVSEFGCSAILRYLLRSPRDLDLQPS
In the case of B7, the “fold induction of β-galactosidase” value in assay [1] was found to be 2.5 fold.

B8: B4F6 (peptide)
chain: B7 chain with G150S, C151G, S152V, A153P, R156H, Y157M, R160M, S161L, R163S, D164S
As for B8, in assay [1], the “fold induction of β-galactosidase” value stood at 5 fold.

B9: B2G1 (peptide)
chain: B6 chain with A152L, T153R, H154R, L156D, R160Q, T161D, D162S, S163F, A164L
B9: the “fold induction of β-galactosidase” value in assay [1] came to 12 fold.

B10: B6C4 (peptide)
chain: B7 chain with G150D, C151R, A153S, R156V, Y157S, R160S, S161M, P162V, R163E, D164T
For the molecule B10, the “fold induction of β-galactosidase” value in assay [1] was not below 2 fold.

B11: B5G11, P04386 1-147 (peptide)
chain: MKLLSSIEQACDICRLKKLKCSKEKPKCAKCLKNNWECRYSPKTKRSPLTRAHLTEVESRLERLEQLFLLIFPREDLDMILKMDSLQDIKALLTGLFVQDNVNKDAVTDRLASVETDMPLTLRQHRISATSSSEESSNKGQRQLTVSEFRSSVFEQMYLCTGGSLDLQPS
modifications: not checked
In assay [2], B11 had a normalized luciferase activity, mammalian two-hybrid; CYP. of 4.46; a normalized luciferase activity, mammalian two-hybrid; DHT of 15.8; a normalized luciferase activity, mammalian two-hybrid; MPA of 8.03; a normalized luciferase activity, mammalian two-hybrid; RU486 of 0.105. Besides, the normalized luciferase activity, mammalian two-hybrid; no compound in assay [2] is 0.0503. In assay [3], this molecule gave a Fold induction, yeast two-hybrid of 6 fold; a β-galactosidase activity, yeast two-hybrid; CPA of 0.973; a β-galactosidase activity, yeast two-hybrid; DHT of 3.96; a β-galactosidase activity, yeast two-hybrid; No Lig of 0.638. For the same molecule, in assay [3], the β-galactosidase activity, yeast two-hybrid; RU is 0.9.

B12: B8E9, P04386 1-147 (peptide)
chain: MKLLSSIEQACDICRLKKLKCSKEKPKCAKCLKNNWECRYSPKTKRSPLTRAHLTEVESRLERLEQLFLLIFPREDLDMILKMDSLQDIKALLTGLFVQDNVNKDAVTDRLASVETDMPLTLRQHRISATSSSEESSNKGQRQLTVSEFQQCMCAEVKSWLGGSLDLQPS
modifications: not checked
In assay [2], B12 gave a normalized luciferase activity, mammalian two-hybrid; CYP. of 16; a normalized luciferase activity, mammalian two-hybrid; DHT of 19.6; a normalized luciferase activity, mammalian two-hybrid; MPA of 18.5; a normalized luciferase activity, mammalian two-hybrid; RU486 of 10.2. The molecule also displayed a normalized luciferase activity, mammalian two-hybrid; no compound in assay [2] of 0.209. In assay [3], this molecule displayed a Fold induction, yeast two-hybrid of 4 fold; a β-galactosidase activity, yeast two-hybrid; CPA of 0.563; a β-galactosidase activity, yeast two-hybrid; DHT of 1.75; a β-galactosidase activity, yeast two-hybrid; No Lig of 0.499. Moreover, the β-galactosidase activity, yeast two-hybrid; RU in assay [3] worked out at 0.8.

B13: B8H3, P04386 1-147 (peptide)
chain: MKLLSSIEQACDICRLKKLKCSKEKPKCAKCLKNNWECRYSPKTKRSPLTRAHLTEVESRLERLEQLFLLIFPREDLDMILKMDSLQDIKALLTGLFVQDNVNKDAVTDRLASVETDMPLTLRQHRISATSSSEESSNKGQRQLTVSEFHSRLRVEVVSWGIGSTCSQANSGRISYDL
modifications: not checked
In assay [2], B13 had a normalized luciferase activity, mammalian two-hybrid; CYP. of 10.5; a normalized luciferase activity, mammalian two-hybrid; DHT of 11.6; a normalized luciferase activity, mammalian two-hybrid; MPA of 11.3; a normalized luciferase activity, mammalian two-hybrid; RU486 of 3.88. The molecule further displayed a normalized luciferase activity, mammalian two-hybrid; no compound in assay [2] of 0.132. In assay [3], this molecule gave a Fold induction, yeast two-hybrid of 22 fold; a β-galactosidase activity, yeast two-hybrid; CPA of 0.393; a β-galactosidase activity, yeast two-hybrid; DHT of 3.81; a β-galactosidase activity, yeast two-hybrid; No Lig of 0.174. In assay [3], this molecule registered a β-galactosidase activity, yeast two-hybrid; RU of 0.
